The experiment deals with T1, 6xHis-tagged Mrs6p, wild-type (S. cerevisiae, UniProt P32864 1-603).
T1 sequence: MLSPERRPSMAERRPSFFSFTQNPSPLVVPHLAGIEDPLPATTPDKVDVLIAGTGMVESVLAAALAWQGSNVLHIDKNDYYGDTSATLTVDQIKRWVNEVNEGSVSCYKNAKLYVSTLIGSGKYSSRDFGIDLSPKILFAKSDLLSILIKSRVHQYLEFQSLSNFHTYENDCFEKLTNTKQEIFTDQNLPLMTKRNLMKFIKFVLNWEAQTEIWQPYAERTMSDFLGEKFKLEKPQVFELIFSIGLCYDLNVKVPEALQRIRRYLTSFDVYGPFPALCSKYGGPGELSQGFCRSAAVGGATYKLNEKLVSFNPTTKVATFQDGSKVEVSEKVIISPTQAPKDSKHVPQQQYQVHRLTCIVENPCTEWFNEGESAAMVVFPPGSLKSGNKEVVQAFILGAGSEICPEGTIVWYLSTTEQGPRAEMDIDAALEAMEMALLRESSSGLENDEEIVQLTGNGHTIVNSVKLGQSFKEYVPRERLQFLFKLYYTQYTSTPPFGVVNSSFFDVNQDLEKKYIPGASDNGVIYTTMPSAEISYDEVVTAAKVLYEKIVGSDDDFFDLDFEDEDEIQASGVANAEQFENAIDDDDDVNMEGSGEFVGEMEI
Briefly: other fluorescence titration.

We go through 1 molecule from article PMC2185574 (The Journal of Cell Biology, 2000).

B1: prenylated His6-tagged Rab3A (natural protein)
chain: MASATDSRYGQKESSDQNFDYMFKILIIGNSSVGKTSFLFRYADDSFTPAFVSTVGIDFKVKTIYRNDKRIKLQIWDTAGQERYRTITTAYYRGAMGFILMYDITNEESFNAVQDWSTQIKTYSWDNAQVLLVGNKCDMEDERVVSSERGRQLADHLGFEFFEASAKDNINVKQTFERLVDVICEKMSESLDTADPAVTGAKQGPQLSDQQVPPHQDCAC
modifications: prenylated (residues not stated)
The molecule B1 showed a Kd of 320 nM.
